Measured values from the RNAGym collection of RNA variant scans (doi:10.7554/elife.80360).

B1: CPEB3 Ribozyme (parent)
chain: GGGGGCCACAGCAGAAGCGUUCACGUCGCGGCCCCUGUCAGAUUCUGGUGAAUCUGCGAAUUCUGCUGU

Variants of: B1
Test: self-cleavage, relative activity (ratio to wild type); higher = more cleavage; co-transcriptional

Variant	self-cleavage
UGGGGCCACAACAGAAGCGUUCACGUCGCGGCCCCUGUCAGAUUCUGGUGAAUCUGCGAAUUCUGCUGU [G1U G11A]	0.0662
UGGGGCCACAGCAGAAGCGUUAACGUCGCGGCCCCUGUCAGAUUCUGGUGAAUCUGCGAAUUCUGCUGU [G1U C22A]	0.0628
UGGGGCCACAGCAGAAGCGUUGACGUCGCGGCCCCUGUCAGAUUCUGGUGAAUCUGCGAAUUCUGCUGU [G1U C22G]	0.0638
UGGGGCCACAGCAGAAGCGUUUACGUCGCGGCCCCUGUCAGAUUCUGGUGAAUCUGCGAAUUCUGCUGU [G1U C22U]	0.102
UGGUGCCACAGCAGAAGCGUUCACGUCGCGGCCCCUGUCAGAUUCUGGUGAAUCUGCGAAUUCUGCUGU [G1U G4U]	0.127
UGGAGCCACAGCAGAAGCGUUCACGUCGCGGCCCCUGUCAGAUUCUGGUGAAUCUGCGAAUUCUGCUGU [G1U G4A]	0.112
UGGCGCCACAGCAGAAGCGUUCACGUCGCGGCCCCUGUCAGAUUCUGGUGAAUCUGCGAAUUCUGCUGU [G1U G4C]	0.0734
UGGGGCCACAGCAGAAGCGUUCACGUCGCGGCCCCUGUCAGAUUCUGGUGUAUCUGCGAAUUCUGCUGU [G1U A51U]	0.148
UGGGGCCACAGCAGAAGCGUUCACGUCGCGGCCCCUGUCAGAUUCUGGUGGAUCUGCGAAUUCUGCUGU [G1U A51G]	0.126
UGGGGCCACAGCAGAAGCGUUCACGUCGCGGCCCCUGUCAGAUUCUGGUGCAUCUGCGAAUUCUGCUGU [G1U A51C]	0.114
UGGGGCCACAGCACAAGCGUUCACGUCGCGGCCCCUGUCAGAUUCUGGUGAAUCUGCGAAUUCUGCUGU [G1U G14C]	0.133
UGGGGCCACAGCAAAAGCGUUCACGUCGCGGCCCCUGUCAGAUUCUGGUGAAUCUGCGAAUUCUGCUGU [G1U G14A]	0.118
UGGGGCCACAGCAGAAGCGUUCACGUCGCGGCCCCUGUCAGGUUCUGGUGAAUCUGCGAAUUCUGCUGU [G1U A42G]	0.0976
UGGGGCCACAGCAGAAGCGUUCACGUCGCGGCCCCUGUCAGUUUCUGGUGAAUCUGCGAAUUCUGCUGU [G1U A42U]	0.0891
UGGGGCCACAGCAGAAGCGUUCACGUCGCGGCCCCUGUCAGCUUCUGGUGAAUCUGCGAAUUCUGCUGU [G1U A42C]	0.0921
UGGGGCCACAGCAGAAGCGUUCACGUCGCGGCCCCUGUCAGAUUCUGGUGAGUCUGCGAAUUCUGCUGU [G1U A52G]	0.167
UGGGGCCACAGCAGAAGCGUUCACGUCGCGGCCCCUGUCAGAUUCUGGUGAUUCUGCGAAUUCUGCUGU [G1U A52U]	0.129
UGGGGCCACAGGAGAAGCGUUCACGUCGCGGCCCCUGUCAGAUUCUGGUGAAUCUGCGAAUUCUGCUGU [G1U C12G]	0.106
UGGGGCCACAGUAGAAGCGUUCACGUCGCGGCCCCUGUCAGAUUCUGGUGAAUCUGCGAAUUCUGCUGU [G1U C12U]	0.124
UGGGGCCACAGCAGAAGCGUUCACGUCGCGGCCCCUGUAAGAUUCUGGUGAAUCUGCGAAUUCUGCUGU [G1U C39A]	0.123
UGGGGCCACAGCAGAAGCGUUCACGUCGCGGCCCCUGUUAGAUUCUGGUGAAUCUGCGAAUUCUGCUGU [G1U C39U]	0.0961
UGGGGCCACAGCAGACGCGUUCACGUCGCGGCCCCUGUCAGAUUCUGGUGAAUCUGCGAAUUCUGCUGU [G1U A16C]	0.022
UGCGGCCACAGCAGAAGCGUUCACGUCGCGGCCCCUGUCAGAUUCUGGUGAAUCUGCGAAUUCUGCUGU [G1U G3C]	0.0566
UGAGGCCACAGCAGAAGCGUUCACGUCGCGGCCCCUGUCAGAUUCUGGUGAAUCUGCGAAUUCUGCUGU [G1U G3A]	0.04
UGUGGCCACAGCAGAAGCGUUCACGUCGCGGCCCCUGUCAGAUUCUGGUGAAUCUGCGAAUUCUGCUGU [G1U G3U]	0.0448
UGGGGCCACAGCAGAAGCGUUCACGUCGCGGCCCCUGUCAGAUUUUGGUGAAUCUGCGAAUUCUGCUGU [G1U C45U]	0.152

Variant	self-cleavage
UGGGGCCACAGCAGAAGCGUUCACGUCGCGGCCCCUGUCAGAUUGUGGUGAAUCUGCGAAUUCUGCUGU [G1U C45G]	0.134
UGGGGCCACAGCAGAAGCGUUCACGUCGCGGCCCCUGUCCGAUUCUGGUGAAUCUGCGAAUUCUGCUGU [G1U A40C]	0.0668
UGGGGCCACAGCAGAAGCGUUCACGUCGCGGCCCCUGUCAGAUUCUGGUGAAUCUGCGACUUCUGCUGU [G1U A60C]	0.0797
UGGGGCCUCAGCAGAAGCGUUCACGUCGCGGCCCCUGUCAGAUUCUGGUGAAUCUGCGAAUUCUGCUGU [G1U A8U]	0.0804
UGGGGCCCCAGCAGAAGCGUUCACGUCGCGGCCCCUGUCAGAUUCUGGUGAAUCUGCGAAUUCUGCUGU [G1U A8C]	0.0263
UGGGGCCACAGCAGAAGCGUUCACGUCGCGGCCCCUGUCAGAUUCUGGUGAAUCUGCGAAUUCUGCUGU [G1U]	0.11
UGGGGCCACUGCAGAAGCGUUCACGUCGCGGCCCCUGUCAGAUUCUGGUGAAUCUGCGAAUUCUGCUGU [G1U A10U]	0.127
UGGGGCCACAGCAGAAGCGUUCUCGUCGCGGCCCCUGUCAGAUUCUGGUGAAUCUGCGAAUUCUGCUGU [G1U A23U]	0.108
CGGGGCCACAGCAGAAGCGUUCACGUCGCGGCCCCUGUCAGAUUCUGGUGAAUCUGCGAAUUCCGCUGU [G1C U64C]	0.179
UGGGGCCACAGCAGAAGCGUUCAGGUCGCGGCCCCUGUCAGAUUCUGGUGAAUCUGCGAAUUCUGCUGU [G1U C24G]	0.0268
CGGGGCCACAGCAGAAGCGUUCACGUCGCGGCCCCUGUCAGAUUCUGGUGAAUCUGCGAAUUCUGCAGU [G1C U67A]	0.193
CGGGGCCACAGCAGAAGCGUUCACGUCGCGGCCCCUGUCAGAUUCUGGUGAAUCUGCGAAUUCUGCCGU [G1C U67C]	0.19
UGGGGCCACAGCAGGAGCGUUCACGUCGCGGCCCCUGUCAGAUUCUGGUGAAUCUGCGAAUUCUGCUGU [G1U A15G]	0.191
UGGGGCCACAGCAGCAGCGUUCACGUCGCGGCCCCUGUCAGAUUCUGGUGAAUCUGCGAAUUCUGCUGU [G1U A15C]	0.136
UGGGGCCACAGCAGAAGCGUUCACGUCGCGGCCCCUGUCAGAUUCUGGUGAAUCUGCGAAUUCUGAUGU [G1U C66A]	0.0594
UGGGGCCACAGCAGAAGCGUUCACGUCGCGGCCCCUGUCAGAUUCUGGUGAAUCUGCGAAUUCUGGUGU [G1U C66G]	0.0803
UGGGGCCACAGCAGAAGCGUUCACGUCGGGGCCCCUGUCAGAUUCUGGUGAAUCUGCGAAUUCUGCUGU [G1U C29G]	0.0597
UGGGGCCACAGCAGAAGCGUUCACGUCGAGGCCCCUGUCAGAUUCUGGUGAAUCUGCGAAUUCUGCUGU [G1U C29A]	0.111
UGGGGCCACAGCAGAAGCGUUCACGUCGUGGCCCCUGUCAGAUUCUGGUGAAUCUGCGAAUUCUGCUGU [G1U C29U]	0.0573
CGGGGCCACAGCAGAAGCGUUCACGUCGCGGCCCCUGUCAGAUUCUGGUGAAUCUGCGAAUUCUGCUGA [G1C U69A]	0.182
UGGGGCCACAGCAGAAGCGUUCACGUCGCGGCCACUGUCAGAUUCUGGUGAAUCUGCGAAUUCUGCUGU [G1U C34A]	0.184
UGGGGCCACAGCAGAAGCGUUCACGUCGCGGCCGCUGUCAGAUUCUGGUGAAUCUGCGAAUUCUGCUGU [G1U C34G]	0.123
UGGGGCCACAGCAGAAGCGUUCACGUCGCGGCCCCUGUCAGAUUCUGGUGAAUCUGUGAAUUCUGCUGU [G1U C57U]	0.0565
UGGGGCCACAGCAGAAGCGUUCACGUCGCGGCCCCUGUCAGAUUCUGGUGAAUCUGGGAAUUCUGCUGU [G1U C57G]	0.0901
UGGGGCCACAGCUGAAGCGUUCACGUCGCGGCCCCUGUCAGAUUCUGGUGAAUCUGCGAAUUCUGCUGU [G1U A13U]	0.122
UCGGGCCACAGCAGAAGCGUUCACGUCGCGGCCCCUGUCAGAUUCUGGUGAAUCUGCGAAUUCUGCUGU [G1U G2C]	0.333

Variant	self-cleavage
UAGGGCCACAGCAGAAGCGUUCACGUCGCGGCCCCUGUCAGAUUCUGGUGAAUCUGCGAAUUCUGCUGU [G1U G2A]	0.0657
UGGGCCCACAGCAGAAGCGUUCACGUCGCGGCCCCUGUCAGAUUCUGGUGAAUCUGCGAAUUCUGCUGU [G1U G5C]	0.0789
UGGGGCCACAGCAGAAGCGUUCACGUCGCGGCCCCUGUCAGAUUCUGGUGAAUGUGCGAAUUCUGCUGU [G1U C54G]	0.099
UGGGGCCACAGCAGAAGCGUUCACGUCGCGGCCCCUGUCAGAUUCUGGUGAAUAUGCGAAUUCUGCUGU [G1U C54A]	0.116
UGGGGCCACAGCAGAAGCGUUCACGUCGCGGCCCAUGUCAGAUUCUGGUGAAUCUGCGAAUUCUGCUGU [G1U C35A]	0.0801
UGGGGCCACAGCAGAAGCGUUCACGUCGCGGCCCUUGUCAGAUUCUGGUGAAUCUGCGAAUUCUGCUGU [G1U C35U]	0.113
UGGGGCCAGAGCAGAAGCGUUCACGUCGCGGCCCCUGUCAGAUUCUGGUGAAUCUGCGAAUUCUGCUGU [G1U C9G]	0.233
UGGGGCCAUAGCAGAAGCGUUCACGUCGCGGCCCCUGUCAGAUUCUGGUGAAUCUGCGAAUUCUGCUGU [G1U C9U]	0.219
UGGGGCCACAGCAGAAGCGUUCACGUCGCGGCCCCUGUCAGAUUCUGGUGAAUCUGCGGAUUCUGCUGU [G1U A59G]	0.148
UGGGGCCACAGCAGAAGCGUUCACGUCGCGGCCCCUGUCAGAUUCUGGUGAAUCUGCGUAUUCUGCUGU [G1U A59U]	0.114
UGGGGCCACAGCAGAAGCGUUCACGUCGCGGCCCCUGUCAGAUUCUGGUGAAUCUGCGCAUUCUGCUGU [G1U A59C]	0.0892
UGGGGCCACAGCAGAAGCGUUCACGUCGCGGCCCCUGUCAGAUUCUGGUGAAUCUGCGAAUUAUGCUGU [G1U C63A]	0.101
UGGGGCCACAGCAGAAGCGUUCACGUCGCGGCCCCUGUCAGAUUCUGGUGAAUCUGCGAAUUUUGCUGU [G1U C63U]	0.0897
UGGGGCCACAGCAGAAGUGUUCACGUCGCGGCCCCUGUCAGAUUCUGGUGAAUCUGCGAAUUCUGCUGU [G1U C18U]	0.104
UGGGGCCACAGCAGAAGGGUUCACGUCGCGGCCCCUGUCAGAUUCUGGUGAAUCUGCGAAUUCUGCUGU [G1U C18G]	0.115
UGGGGGCACAGCAGAAGCGUUCACGUCGCGGCCCCUGUCAGAUUCUGGUGAAUCUGCGAAUUCUGCUGU [G1U C6G]	0.126
UGGGGACACAGCAGAAGCGUUCACGUCGCGGCCCCUGUCAGAUUCUGGUGAAUCUGCGAAUUCUGCUGU [G1U C6A]	0.0884
UGGGGUCACAGCAGAAGCGUUCACGUCGCGGCCCCUGUCAGAUUCUGGUGAAUCUGCGAAUUCUGCUGU [G1U C6U]	0.0906
UGGGGCCACAGCAGAAGCGUUCACGUCGCGGUCCCUGUCAGAUUCUGGUGAAUCUGCGAAUUCUGCUGU [G1U C32U]	0.157
UGGGGCCACAGCAGAAGCGUUCACGUCGCGGGCCCUGUCAGAUUCUGGUGAAUCUGCGAAUUCUGCUGU [G1U C32G]	0.09
UGGGGCCACAGCAGAAGCGUUCACGUCGCGGACCCUGUCAGAUUCUGGUGAAUCUGCGAAUUCUGCUGU [G1U C32A]	0.201
UGGGGCCACAGCAGAAGCGUUCACGUGGCGGCCCCUGUCAGAUUCUGGUGAAUCUGCGAAUUCUGCUGU [G1U C27G]	0.0589
UGGGGCCACAGCAGAAGCGUUCACGUAGCGGCCCCUGUCAGAUUCUGGUGAAUCUGCGAAUUCUGCUGU [G1U C27A]	0.0657
UGGGGCGACAGCAGAAGCGUUCACGUCGCGGCCCCUGUCAGAUUCUGGUGAAUCUGCGAAUUCUGCUGU [G1U C7G]	0.127
UGGGGCAACAGCAGAAGCGUUCACGUCGCGGCCCCUGUCAGAUUCUGGUGAAUCUGCGAAUUCUGCUGU [G1U C7A]	0.0722
UGGGGCCACAGCAGAAGCGUUCACGUCGCGGCACCUGUCAGAUUCUGGUGAAUCUGCGAAUUCUGCUGU [G1U C33A]	0.176
